Patent publication US9540654B2, “Synthetic brassica-derived chloroplast transit peptides” (Dow AgroSciences LLC, priority 2012, dated 2017)

Key:
[1] = system: Zea mays B104; assay: Post-emergence glyphosate tolerance of dgt-28 T0 corn (greenhouse); type: in vivo; settings: for protection to glyphosate: T0 corn, dgt-28 linked to the transit peptide
Protocol: Zea mays dgt-28 transformation events (T0) were allowed to acclimate in the greenhouse and were grown until plants had transitioned from tissue culture to greenhouse growing conditions (i.e., 2-4 new, normal looking leaves had emerged from the whorl). Plants were grown at 27° C. under 16 hour light:8 hour dark conditions in the greenhouse. The plants were then treated with commercial formulations of DURANGO DMA™ (containing the herbicide glyphosate) with the addition of 2% w/v ammonium-sulfate. Herbicide applications were made with a track sprayer at a spray volume of 187 L/ha, 50-cm spray height. T0 plants were sprayed with a range of glyphosate from 280-4480 g ae/ha glyphosate, which is capable of significant injury to untransformed corn lines. A lethal dose is defined as the rate that causes >95% injury to the B104 inbred.
T0 events of dgt-28 linked with TraP4, TraP5, TraP8 and TraP23 were generated by Agrobacterium transformation and were allowed to acclimate under controlled growth chamber conditions until 2-4 new, normal looking leaves had emerged from the whorl. Plants were assigned individual identification numbers and sampled for copy number analyses of both dgt-28 and aad-1. Based on copy number analyses, plants were selected for protein expression analyses. Plants were transplanted into larger pots with new growing media and grown at 27° C. under 16 hour light:8 hour dark conditions in the greenhouse. Remaining plants that were not sampled for protein expression were then treated with commercial formulations of DURANGO DMA™ (glyphosate) with the addition of 2% w/v ammonium-sulfate. Treatments were distributed so that each grouping of plants contained T0 events of varying copy number. Herbicide applications were made with a track sprayer at a spray volume of 187 L/ha, 50-cm spray height. T0 plants were sprayed with a range of glyphosate from 280-4480 g ae/ha glyphosate capable of significant injury to untransformed corn lines. A lethal dose is defined as the rate that causes >95% injury to the B104 inbred. B104 was the genetic background of the transformants.

[2] = system: tobacco (cv. Petit Havana); assay: Postemergence glyphosate tolerance of dgt-28 tobacco (T1, T2); type: in vivo; settings: T1 tobacco, 2240 g ae/ha glyphosate, 14 DAT
Text: T1 resistant plants from each event used in the progeny testing were given unique identifiers and sampled for zygosity analyses of the dgt-28 gene. Zygosity data were used to assign 2 hemizygous and 2 homozygous replicates to each rate of glyphosate applied allowing for a total of 4 replicates per treatment. These plants were compared against wildtype Petite havana tobacco. All plants were sprayed with a track sprayer set at 187 L/ha. The plants were sprayed from a range of 560-4480 g ae/ha DURANGO DMA™. All applications were formulated in water with the addition of 2% w/v ammonium sulfate (AMS). Plants were evaluated at 7 and 14 days after treatment. Plants were assigned an injury rating with respect to overall visual stunting, chlorosis, and necrosis. The T1 generation is segregating, so some variable response is expected due to difference in zygosity.
Rates of DURANGO DMA™ ranging from 420-3360 g ae/ha glyphosate were applied to 2-3 leaf tobacco as previously described.

[3] = system: chloroplasts of the tobacco leaf tissue; assay: Tobacco transient assay, confocal microscopy of TraP-YFP; type: cell-based, Nicotiana benthamiana; settings: Agrobacterium-infiltrated tobacco leaves
Text: The Trap12 and TraP13 chimeric chloroplast transit peptide sequences were initially tested via a transient in planta assay. Polynucleotide sequences which encode the Trap12 (SEQ ID NO:5) and TraP13 (SEQ ID NO:7) chimeric chloroplast transit peptide sequences were synthesized. A linker sequence (SEQ ID NO:10) was incorporated between the TraP sequence and the yfp coding sequence. The resulting constructs contained two plant transcription units (PTU). The first PTU was comprised of the Arabidopsis thaliana Ubiquitin 10 promoter (AtUbi10 promoter; Callis, et al., (1990) J. Biol. Chem., 265: 12486-12493), Trap yellow fluorescent protein fusion gene (TraP-YFP; US Patent App. 2007/0298412), and Agrobacterium tumefaciens ORF 23 3′ untranslated region (AtuORF23 3′UTR; U.S. Pat. No. 5,428,147). […]
Agrobacterium-infiltrated tobacco leaves were severed from the plant, and placed into a petri-dish with water to prevent dehydration. The infiltrated tobacco leaves were observed under blue light excitation with long-pass filter glasses held in place using a Dark Reader Hand Lamp™ (Clare Chemical Research Co.; Dolores, Colo.) to identify undamaged areas of the leaf that were successfully expressing the YFP reporter proteins. […]

Row | Molecule | glyphosate concentration controlling non-transformed plants ([1]; non-transformed corn plants) [g ae/ha] | protection to glyphosate [1] | % Injury Ave [2] [%] | localization of YFP fluorescence signal (microscopy imaging) [3]
1 | O=C(O)CNCP(=O)(O)O [glyphosate, reference compound] | ≥ 280 | – | – | –
2 | TraP23: chloroplast transit peptide (SEQ ID NO:41) linked with dgt-28 or dgt-31 (protein, Chloroplast Transit Peptide) MAQINKSANGVRNASLISNFSNTRQAKSPFSLSCGTRLKNSSRGLKKVAVRLIGSRVKVSAS | – | robust protection | 9.5 | –
3 | TraP5: chloroplast transit peptide (SEQ ID NO:29) linked with dgt-28 (protein, Chloroplast Transit Peptide) MQLLNQRQALRLGRSSASKNQQVAPLASRPASSLSVSASSVAPAPACSAPAGAGRRAVVVRA | – | robust protection | – | –
4 | TraP13: chimeric chloroplast transit peptide SEQ ID NO:8, N-terminus from Arabidopsis thaliana, C-terminus from Brassica napus EPSPS (protein, TraP13 chloroplast transit peptide) MAQVSRICNGVQNPSLISNLSKSSQRKSPLSVSLKTQQPRASSWGLKKSGTMLNGSVIRPVKVTASVS | – | – | – | accumulated within the chloroplasts
5 | TraP8: chloroplast transit peptide (SEQ ID NO:30) linked with dgt-28 (protein, Chloroplast Transit Peptide) MAQSSRICHGVQNPCVIISNLSKSNQNKSPFSVSLKTHQQQRRAYQISSWGLKKSNNGSVIRPVKA | – | robust protection | 9.3 | –
